Assay results as given in the supplement of paper PMC9112550, “Optimization of the antimicrobial peptide Bac7 by deep mutational scanning” (BMC Biology, 2022).

tested on: Escherichia coli TOP10; assay: shrunken log2 fold change of peptide-encoding DNA abundance (4.5 h post-induction vs induction); higher = less antimicrobial activity (less host growth inhibition); settings: time post-induction: 4.5 h; library: site-saturation at positions 5, 18, 19, 20
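Note: peptides expressed intracellularly from a pBAD plasmid library in pooled LB shake-flask culture, induced with 0.3% L-arabinose, DNA abundance read by NGS, three biological replicates, DESeq2 with apeglm shrinkage.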

Point of comparison: RRIRVRPPRLPRPRPRPEPWPRP, “shrunken log2 fold change” value 0.128. Against it:
- RRIRPRPPRLPRPRPRPYYVPRP — lower, -1.25
- RRIRGRPPRLPRPRPRPSTNPRP — within 0.2 log units, 0.271
- RRIRERPPRLPRPRPRPIDHPRP — lower, -0.379
- RRIRQRPPRLPRPRPRPEIQPRP — within 0.2 log units, 0.0108
- RRIRFRPPRLPRPRPRPLCTPRP — lower, -0.137
- RRIRMRPPRLPRPRPRPLLHPRP — within 0.2 log units, 0.228
- RRIRQRPPRLPRPRPRPRSQPRP — within 0.2 log units, 0.0421
- RRIRKRPPRLPRPRPRPRRSPRP — within 0.2 log units, 0.0846
- RRIRTRPPRLPRPRPRPVTNPRP — within 0.2 log units, -0.0277
- RRIRVRPPRLPRPRPRPGDPPRP — within 0.2 log units, 0.172
- RRIRDRPPRLPRPRPRPVDAPRP — within 0.2 log units, -0.0229
- RRIRLRPPRLPRPRPRPWYTPRP — lower, -0.57
- RRIRLRPPRLPRPRPRPMLRPRP — within 0.2 log units, 0.0543
- RRIRERPPRLPRPRPRPMWNPRP — within 0.2 log units, -0.0278
- RRIRGRPPRLPRPRPRPVFLPRP — within 0.2 log units, -0.0506
- RRIRVRPPRLPRPRPRPKEQPRP — within 0.2 log units, -0.0164
- RRIRVRPPRLPRPRPRPEGGPRP — higher, 0.747
- RRIRQRPPRLPRPRPRPVNYPRP — within 0.2 log units, -0.00127
- RRIRLRPPRLPRPRPRPFDMPRP — lower, -0.205
- RRIRFRPPRLPRPRPRPTDIPRP — within 0.2 log units, 0.0284
- RRIRNRPPRLPRPRPRPQHTPRP — lower, -0.402
- RRIRGRPPRLPRPRPRPIKVPRP — higher, 0.356
- RRIRDRPPRLPRPRPRPVTNPRP — within 0.2 log units, 0.102
- RRIRQRPPRLPRPRPRPHIAPRP — lower, -0.142
- RRIRARPPRLPRPRPRPKGWPRP — higher, 0.862
- RRIRARPPRLPRPRPRPPRHPRP — higher, 0.937
- RRIRDRPPRLPRPRPRPQLFPRP — lower, -0.0901
- RRIRGRPPRLPRPRPRPKKMPRP — higher, 0.572
- RRIRRRPPRLPRPRPRPTCDPRP — higher, 0.502
- RRIRQRPPRLPRPRPRPMLPPRP — lower, -0.384
- RRIRGRPPRLPRPRPRPELWPRP — higher, 2.06
- RRIRDRPPRLPRPRPRPMQWPRP — within 0.2 log units, 0.0918
- RRIRYRPPRLPRPRPRPYTSPRP — lower, -0.533
- RRIRYRPPRLPRPRPRPCGWPRP — within 0.2 log units, -0.00979
- RRIRRRPPRLPRPRPRPRNIPRP — within 0.2 log units, -0.0349
- RRIRERPPRLPRPRPRPFSGPRP — lower, -0.55
- RRIRQRPPRLPRPRPRPHTTPRP — within 0.2 log units, 0.182
- RRIRWRPPRLPRPRPRPGWAPRP — higher, 0.845
- RRIRPRPPRLPRPRPRPMHKPRP — within 0.2 log units, 0.0775
- RRIRCRPPRLPRPRPRPYNQPRP — lower, -1.23
- RRIRMRPPRLPRPRPRPIYQPRP — lower, -0.236
- RRIRDRPPRLPRPRPRPTYSPRP — lower, -0.757
- RRIRFRPPRLPRPRPRPETQPRP — lower, -0.0941
- RRIRKRPPRLPRPRPRPNKIPRP — within 0.2 log units, 0.0339
- RRIRPRPPRLPRPRPRPNTMPRP — lower, -0.492
- RRIRMRPPRLPRPRPRPLSCPRP — within 0.2 log units, 0.163
- RRIRIRPPRLPRPRPRPGNPPRP — lower, -0.366
- RRIRFRPPRLPRPRPRPQHSPRP — lower, -0.347
- RRIRFRPPRLPRPRPRPAHHPRP — lower, -0.152
- RRIRRRPPRLPRPRPRPFVSPRP — lower, -0.0868
- RRIRQRPPRLPRPRPRPISAPRP — within 0.2 log units, -0.0212
- RRIRHRPPRLPRPRPRPESLPRP — lower, -0.245
- RRIRTRPPRLPRPRPRPSYSPRP — lower, -0.316
- RRIRYRPPRLPRPRPRPLWVPRP — lower, -0.0829
- RRIRFRPPRLPRPRPRPAIVPRP — within 0.2 log units, -0.0488
- RRIRLRPPRLPRPRPRPFDAPRP — higher, 0.509
- RRIRNRPPRLPRPRPRPGMFPRP — lower, -0.252
- RRIRKRPPRLPRPRPRPGAQPRP — higher, 0.496
- RRIRARPPRLPRPRPRPKKTPRP — lower, -0.0919
- RRIRLRPPRLPRPRPRPLDNPRP — lower, -0.293
- RRIRDRPPRLPRPRPRPELQPRP — within 0.2 log units, 0.072
- RRIRQRPPRLPRPRPRPVPFPRP — lower, -0.374
- RRIRKRPPRLPRPRPRPEVLPRP — higher, 1.57
- RRIRLRPPRLPRPRPRPMCDPRP — lower, -0.481
- RRIRLRPPRLPRPRPRPKSEPRP — within 0.2 log units, 0.0422
- RRIRYRPPRLPRPRPRPEGYPRP — within 0.2 log units, -0.01
- RRIRYRPPRLPRPRPRPNNCPRP — within 0.2 log units, -0.0707
- RRIRPRPPRLPRPRPRPKSPPRP — lower, -0.12
- RRIRPRPPRLPRPRPRPTWMPRP — within 0.2 log units, -0.0166
- RRIRTRPPRLPRPRPRPAKWPRP — within 0.2 log units, -0.000772
- RRIRSRPPRLPRPRPRPQWMPRP — lower, -0.155
- RRIRVRPPRLPRPRPRPGREPRP — within 0.2 log units, -0.00937
- RRIRMRPPRLPRPRPRPFMKPRP — within 0.2 log units, -0.0288
- RRIRERPPRLPRPRPRPEPEPRP — higher, 0.475
- RRIRSRPPRLPRPRPRPTTTPRP — within 0.2 log units, 0.0739
- RRIRFRPPRLPRPRPRPKLCPRP — lower, -0.14
- RRIRGRPPRLPRPRPRPQTTPRP — higher, 0.889
- RRIRSRPPRLPRPRPRPTAQPRP — higher, 0.405
- RRIRMRPPRLPRPRPRPAFMPRP — within 0.2 log units, 0.211
- RRIRKRPPRLPRPRPRPPFMPRP — higher, 0.517
- RRIRVRPPRLPRPRPRPQQYPRP — lower, -0.258
- RRIRMRPPRLPRPRPRPTHHPRP — within 0.2 log units, 0.316
- RRIRTRPPRLPRPRPRPTSFPRP — within 0.2 log units, 0.0555
- RRIRARPPRLPRPRPRPQAHPRP — within 0.2 log units, 0.324
- RRIRGRPPRLPRPRPRPAIIPRP — within 0.2 log units, 0.134
- RRIRARPPRLPRPRPRPKPVPRP — higher, 0.882
- RRIRARPPRLPRPRPRPANDPRP — within 0.2 log units, 0.0448
- RRIRCRPPRLPRPRPRPRRGPRP — higher, 0.392
- RRIRARPPRLPRPRPRPKNHPRP — lower, -0.125
- RRIRLRPPRLPRPRPRPPKGPRP — within 0.2 log units, 0.306
- RRIRERPPRLPRPRPRPGWIPRP — lower, -0.105
- RRIRARPPRLPRPRPRPRLSPRP — higher, 0.358
- RRIRWRPPRLPRPRPRPRQRPRP — higher, 0.957
- RRIRARPPRLPRPRPRPHTVPRP — within 0.2 log units, -0.0287
- RRIRMRPPRLPRPRPRPRCWPRP — higher, 0.666
- RRIRCRPPRLPRPRPRPQTVPRP — lower, -0.275
- RRIRFRPPRLPRPRPRPRTWPRP — higher, 0.544
- RRIRWRPPRLPRPRPRPKWWPRP — within 0.2 log units, 0.266
- RRIRQRPPRLPRPRPRPARWPRP — higher, 0.781
- RRIRCRPPRLPRPRPRPYHFPRP — lower, -1.01
- RRIRWRPPRLPRPRPRPQQWPRP — higher, 0.333
- RRIRTRPPRLPRPRPRPKKDPRP — lower, -0.147
- RRIRPRPPRLPRPRPRPMAYPRP — lower, -0.126
- RRIRDRPPRLPRPRPRPMEVPRP — within 0.2 log units, 0.142
- RRIRRRPPRLPRPRPRPFRMPRP — within 0.2 log units, -0.0671
- RRIRDRPPRLPRPRPRPRKWPRP — within 0.2 log units, -0.0062
- RRIRRRPPRLPRPRPRPSPCPRP — within 0.2 log units, 0.155
- RRIRKRPPRLPRPRPRPFRNPRP — lower, -0.309
- RRIRRRPPRLPRPRPRPYLTPRP — within 0.2 log units, 0.0355
- RRIRGRPPRLPRPRPRPNVIPRP — within 0.2 log units, 0.211
- RRIRGRPPRLPRPRPRPGINPRP — higher, 0.499
- RRIRSRPPRLPRPRPRPLDYPRP — lower, -0.194
- RRIRNRPPRLPRPRPRPYGVPRP — within 0.2 log units, -0.00804
- RRIRQRPPRLPRPRPRPRCCPRP — within 0.2 log units, 0.061
- RRIRWRPPRLPRPRPRPNTQPRP — higher, 0.448
- RRIRSRPPRLPRPRPRPNVLPRP — within 0.2 log units, 0.105
- RRIRTRPPRLPRPRPRPWKAPRP — within 0.2 log units, 0.0456
- RRIRHRPPRLPRPRPRPLRFPRP — lower, -0.172
- RRIRPRPPRLPRPRPRPTVVPRP — within 0.2 log units, 0.0581
- RRIRWRPPRLPRPRPRPMFHPRP — lower, -0.271
- RRIRIRPPRLPRPRPRPIRFPRP — lower, -1.35
- RRIRMRPPRLPRPRPRPGGGPRP — higher, 1.67
- RRIRERPPRLPRPRPRPGDQPRP — within 0.2 log units, -0.0675
- RRIRMRPPRLPRPRPRPNNTPRP — lower, -0.292
- RRIRHRPPRLPRPRPRPMMIPRP — within 0.2 log units, 0.00431
- RRIRRRPPRLPRPRPRPNLLPRP — within 0.2 log units, -0.00833
- RRIRLRPPRLPRPRPRPLERPRP — within 0.2 log units, -0.000861
- RRIRPRPPRLPRPRPRPTTAPRP — within 0.2 log units, 0.0804
- RRIRSRPPRLPRPRPRPRTFPRP — within 0.2 log units, 0.00214
- RRIRERPPRLPRPRPRPKEGPRP — lower, -0.129
- RRIRARPPRLPRPRPRPKTKPRP — within 0.2 log units, 0.0731
- RRIRQRPPRLPRPRPRPPTPPRP — higher, 0.538
- RRIRCRPPRLPRPRPRPGFVPRP — higher, 0.528
- RRIRGRPPRLPRPRPRPTGWPRP — higher, 1.04
- RRIRTRPPRLPRPRPRPNPDPRP — within 0.2 log units, -0.0402
- RRIRTRPPRLPRPRPRPDTHPRP — lower, -0.424
- RRIRGRPPRLPRPRPRPAYAPRP — within 0.2 log units, 0.0503
- RRIRWRPPRLPRPRPRPAQPPRP — within 0.2 log units, 0.236
- RRIRLRPPRLPRPRPRPEFCPRP — within 0.2 log units, 0.11
- RRIRLRPPRLPRPRPRPYQWPRP — lower, -0.241
- RRIRLRPPRLPRPRPRPQCHPRP — within 0.2 log units, 0.0598
- RRIRMRPPRLPRPRPRPFWTPRP — within 0.2 log units, 0.0652
- RRIRRRPPRLPRPRPRPWDNPRP — within 0.2 log units, 0.0234
- RRIRFRPPRLPRPRPRPHHNPRP — lower, -0.754
- RRIRTRPPRLPRPRPRPHAMPRP — lower, -0.31
- RRIRCRPPRLPRPRPRPNYEPRP — lower, -0.442
- RRIRQRPPRLPRPRPRPNHCPRP — within 0.2 log units, -0.0615
- RRIRRRPPRLPRPRPRPLDQPRP — within 0.2 log units, -0.0226
- RRIRQRPPRLPRPRPRPHGLPRP — lower, -0.327
